Values of other authors as cited in PMC6627586.

Target: ceruloplasmin (Homo sapiens) (UniProt P00450)
Sequence of UniProt P00450 (P00450 20-1065): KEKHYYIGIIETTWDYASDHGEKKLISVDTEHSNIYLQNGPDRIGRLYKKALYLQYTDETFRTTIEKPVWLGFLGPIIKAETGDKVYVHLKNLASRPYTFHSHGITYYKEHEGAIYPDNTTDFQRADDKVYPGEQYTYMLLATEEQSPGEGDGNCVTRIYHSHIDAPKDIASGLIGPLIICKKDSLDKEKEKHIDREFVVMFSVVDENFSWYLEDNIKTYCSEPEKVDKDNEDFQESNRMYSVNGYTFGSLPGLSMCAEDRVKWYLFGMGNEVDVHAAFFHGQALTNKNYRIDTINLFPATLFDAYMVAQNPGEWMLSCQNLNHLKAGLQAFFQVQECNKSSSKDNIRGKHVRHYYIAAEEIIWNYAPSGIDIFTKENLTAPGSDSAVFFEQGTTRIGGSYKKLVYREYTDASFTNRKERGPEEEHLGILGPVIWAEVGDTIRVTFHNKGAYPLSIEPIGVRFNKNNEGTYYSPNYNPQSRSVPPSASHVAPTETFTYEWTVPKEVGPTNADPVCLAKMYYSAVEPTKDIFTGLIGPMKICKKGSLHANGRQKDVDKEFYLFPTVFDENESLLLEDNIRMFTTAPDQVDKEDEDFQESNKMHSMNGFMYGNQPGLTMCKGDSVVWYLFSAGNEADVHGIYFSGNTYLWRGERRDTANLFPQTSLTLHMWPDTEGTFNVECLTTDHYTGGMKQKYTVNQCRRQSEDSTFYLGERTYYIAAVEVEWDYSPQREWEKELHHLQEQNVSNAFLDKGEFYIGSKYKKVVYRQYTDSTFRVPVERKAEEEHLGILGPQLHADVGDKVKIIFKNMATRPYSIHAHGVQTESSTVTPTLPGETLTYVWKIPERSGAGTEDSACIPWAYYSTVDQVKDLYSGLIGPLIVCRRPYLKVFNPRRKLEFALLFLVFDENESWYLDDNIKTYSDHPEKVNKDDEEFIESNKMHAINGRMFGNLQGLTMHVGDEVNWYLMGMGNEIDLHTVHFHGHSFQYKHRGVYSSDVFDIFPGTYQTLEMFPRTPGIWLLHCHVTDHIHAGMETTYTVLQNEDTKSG

Kd: 1500 nM
Substance: CTR1 second extracellular loop fragment (from UniProt O15431)
